# Laboratory results from PMC2770460, “Karyopherin binding interactions and nuclear import mechanism of nuclear pore complex protein Tpr” (BMC Cell Biology, 2009).
# B1: C-terminal domain of Tpr (C-Tpr, residues 1626-2348) (domain or fragment)
# chain: EQRDEPQEPSNKVPEQQRQITLKTTPASGERGIASTSDPPTANIKPTPVVSTPSKVTAAAMAGNKSTPRASIRPMVTPATVTNPTTTPTATVMPTTQVESQEAMQSEGPVEHVPVFGSTSGSVRSTSPNVQPSISQPILTVQQQTQATAFVQPTQQSHPQIEPANQELSSNIVEVVQSSPVERPSTSTAVFGTVSATPSSSLPKRTREEEEDSTIEASDQVSDDTVEMPLPKKLKSVTPVGTEEEVMAEESTDGEVETQVYNQDSQDSIGEGVTQGDYTPMEDSEETSQSLQIDLGPLQSDQQTTTSSQDGQGKGDDVIVIDSDDEEEDDDENDGEHEDYEEDEEDDDDDEDDTGMGDEGEDSNEGTGSADGNDGYEADDAEGGDGTDPGTETEESMGGGEGNHRAADSQNSGEGNTGAAESSFSQEVSREQQPSSASERQAPRAPQSPRRPPHPLPPRLTIHAPPQELGPPVQRIQMTRRQSVGRGLQLTPGIGGMQQHFFDDEDRTVPSTPTLVVPHRTDGFAEAIHSPQVAGVPRFRFGPPEDMPQTSSSHSDLGQLASQGGLGMYETPLFLAHEEESGGRSVPTTPLQVAAPVTVFTESTTSDASEHASQSVPMVTTSTGTLSTTNETATGDDGDEVFVEAESEGISSEAGLEIDSQQEEEPVQASDESDLPSTSQDPPSSSSVDTSSSQPKPFRRVRLQTTLRQGVRGRQFNRQRGVS
# Target: His-importin α (human, UniProt P52292 1-529)
# Assay: ELISA; solid phase binding assay: Maxisorp microtiter plates coated with 25 ng of Tpr or C-Tpr; increasing concentrations of the soluble protein; bound protein detected with primary antibodies and horseradish peroxidase-conjugated secondary antibodies (TMB); apparent Kd from B = Bmax x Y/(Kd + Y); CRM1, NES and RanGTP at equimolar concentrations
# Conditions: both partners purified
binder,measurement,value
B1,Kd,21.5 nM
